The record followed here is paper PMC9988990.

Common to all, as to experiment: SEC; Superose 6 10/300 in 10 mM Tris, 100 mM NaCl, pH 8.0, after StrepTactin affinity purification; peak of the trimeric ectodomain
A general note: SEC sorts molecules by how far they enter the pores of the column.

For assay [1], the target named is recombinant gorilla GII FV Env ectodomain variant mut1 (K342A/R343A) (simian foamy virus, gorilla (genotype II)).
In assay [2] the target is recombinant gorilla GII FV Env ectodomain variant mut2 (R356A/R369A) (simian foamy virus, gorilla (genotype II)).
Assay [3] deals with recombinant gorilla GII FV Env ectodomain, wild type (simian foamy virus, gorilla (genotype II)).

Regarding “recombinant gorilla GII FV Env ectodomain variant mut1 (K342A/R343A) (domain or fragment)”, in assay [1], the stoichiometry N was 3. In the case of “recombinant gorilla GII FV Env ectodomain variant mut2 (R356A/R369A) (domain or fragment)”, the stoichiometry N in assay [2] came to 3.

In the case of “recombinant gorilla GII FV Env ectodomain, wild type (domain or fragment)”, the stoichiometry N in assay [3] was determined as 3.

For orientation: stoichiometry N means a count of units in the complex or per binding partner.
